These results are taken from paper PMC2132560 (The Journal of Cell Biology, 1997).

First the molecules themselves.
B2: GST-transportin1 fusion protein (natural protein)
chain: MEYEWKPDEQGLQQILQLLKESQSPDTTIQRTVQQKLEQLNQYPDFNNYLIFVLTKLKSEDEPTRSLSGLILKNNVKAHFQNFPNGVTDFIKSECLNNIGDSSPLIRATVGILITTIASKGELQNWPDLLPKLCSLLDSEDYNTCEGAFGALQKICEDSAEILDSDVLDRPLNIMIPKFLQFFKHSSPKIRSHAVACVNQFIISRTQALMLHIDSFIENLFALAGDEEPEVRKNVCRALVMLLEVRMDRLLPHMHNIVEYMLQRTQDQDENVALEACEFWLTLAEQPICKDVLVRHLPKLIPVLVNGMKYSDIDIILLKGDVEEDETIPDSEQDIRPRFHRSRTVAQQHDEDGIEEEDDDDDEIDDDDTISDWNLRKCSAAALDVLANVYRDELLPHILPLLKELLFHHEWVVKESGILVLGAIAEGCMQGMIPYLPELIPHLIQCLSDKKALVRSITCWTLSRYAHWVVSQPPDTYLKPLMTELLKRILDSNKRVQEAACSAFATLEEEACTELVPYLAYILDTLVFAFSKYQHKNLLILYDAIGTLADSVGHHLNKPEYIQMLMPPLIQKWNMLKDEDKDLFPLLECLSSVATALQSGFLPYCEPVYQRCVNLVQKTLAQAMLNNAQPDQYEAPDKDFMIVALDLLSGLAEGLGGNIEQLVARSNILTLMYQCMQDKMPEVRQSSFALLGDLTKACFQHVKPCIADFMPILGTNLNPEFISVCNNATWAIGEISIQMGIEMQPYIPMVLHQLVEIINRPNTPKTLLENTAITIGRLGYVCPQEVAPMLQQFIRPWCTSLRNIRDNEEKDSAFRGICTMISVNPSGVIQDFIFFCDAVASWINPKDDLRDMFCKILHGFKNQVGDENWRRFSDQFPLPLKERLAAFYGV

Experiment [1] addresses B2. The experiment can be described thus: native gel or EMSA. A general note: A gel shift assay detects complexes by their altered migration in electrophoresis.
The target in another experiment is RanGTP (UniProt P62826 1-216). The experiment in a line: native gel or EMSA.

B1: recombinant hnRNP A1 protein (natural protein, human, UniProt P09651-2 1-320, looked up)
chain: MSKSESPKEPEQLRKLFIGGLSFETTDESLRSHFEQWGTLTDCVVMRDPNTKRSRGFGFVTYATVEEVDAAMNARPHKVDGRVVEPKRAVSREDSQRPGAHLTVKKIFVGGIKEDTEEHHLRDYFEQYGKIEVIEIMTDRGSGKKRGFAFVTFDDHDSVDKIVIQKYHTVNGHNCEVRKALSKQEMASASSSQRGRSGSGNFGGGRGGGFGGNDNFGRGGNFSGRGGFGGSRGGGGYGGSGDGYNGFGNDGSNFGGGGSYNDFGNYNNQSSNFGPMKGGNFGGRSSGPYGGGGQYFAKPRNQGGYGGSSSSSSYGSGRRF
Take B1: in experiment [1], the binding result is listed as “binds”. As for B2, the binding result with RanGTP is “binds”.
